Values joined by “and” are separate entries in the source; they are usually repeats but may differ in a detail not shown here. Equal entries are not always repeated. Where two headings read alike, the source gives them in different places.
Tests used:
[1] = target: H7N9病毒Suzhou-03病毒株的HA蛋白 (H7N9病毒); assay: cell-based or functional assay
[2] = target: H7N9病毒Nanjing-06病毒株的HA蛋白 (H7N9病毒); assay: cell-based or functional assay
[3] = target: H7N9病毒Wuxi-01病毒株的HA蛋白 (H7N9病毒); assay: cell-based or functional assay
[4] = target: H7N9病毒Wuxi-02病毒株的HA蛋白 (H7N9病毒); assay: cell-based or functional assay
纯化的H7N9病毒HA蛋白 (H7N9病毒) [5] = assay: ELISA, HA-coated plate, expression supernatant diluted 1:640, anti-human Fc-HRP
纯化的H7N9病毒HA蛋白 (H7N9病毒) [6] = target: 纯化的H7N9病毒HA蛋白 (H7N9病毒)
纯化的H7N9病毒HA蛋白 (H7N9病毒) [7] = assay: ELISA, HA-coated plate, expression supernatant diluted 1:20, anti-human Fc-HRP
纯化的H7N9病毒HA蛋白 (H7N9病毒) [8] = assay: ELISA, HA-coated plate, expression supernatant diluted 1:40, anti-human Fc-HRP
纯化的H7N9病毒HA蛋白 (H7N9病毒) [9] = assay: ELISA, HA-coated plate, expression supernatant diluted 1:160, anti-human Fc-HRP
纯化的H7N9病毒HA蛋白 (H7N9病毒) [10] = assay: ELISA, HA-coated plate, expression supernatant diluted 1:80, anti-human Fc-HRP
纯化的H7N9病毒HA蛋白 (H7N9病毒) [11] = assay: ELISA, HA-coated plate, expression supernatant diluted 1:320, anti-human Fc-HRP

B1: 抗H7N9病毒的单克隆抗体mAb6137 (antibody, V domains shown)
VH: EVQLVESGGGLVQPGRSLRLSCAASGFIFDDYAMHWVRQAPGKGLEWVSGISWNNNNRAYADSVKGRFTISRDSAKNSLYLQMNSLRAEDTALYYCAKDILSLNMVRGGDEYYGIDVWGQGTTVTVSS
VL: DIQLTQSPSSLSASVGDRVTITCQASQDINNYLNWYQQKPGKAPKLLIFDASNLETGVPSRFSGSGSGTDFTFTISSLQPEDIATYYCQQYGSLLTFGGGTKVDIKR
Question: Which results are given for B1?
Answer: 中和100×TCID50病毒需要的抗体质量 [1]: 40 ng; 中和100×TCID50病毒需要的抗体质量 [2]: 20 ng; 中和100×TCID50病毒需要的抗体质量 [3]: 40 ng; 中和100×TCID50病毒需要的抗体质量 [4]: 80 ng; OD450 (纯化的H7N9病毒HA蛋白 (H7N9病毒) [5]): 0.35 OD450; OD450 (纯化的H7N9病毒HA蛋白 (H7N9病毒) [6]): 0.211 OD450 and 0.153 OD450; OD450 (纯化的H7N9病毒HA蛋白 (H7N9病毒) [7]): 2.06 OD450; OD450 (纯化的H7N9病毒HA蛋白 (H7N9病毒) [8]): 1.91 OD450; OD450 (纯化的H7N9病毒HA蛋白 (H7N9病毒) [9]): 0.971 OD450; OD450 (纯化的H7N9病毒HA蛋白 (H7N9病毒) [10]): 1.37 OD450; OD450 (纯化的H7N9病毒HA蛋白 (H7N9病毒) [11]): 0.584 OD450

Reference: CN107011436A
